In publication PMC9886983, “Mechanism of regulation of the Helicobacter pylori Cagβ ATPase by CagZ” (Nature Communications, 2023):

Key:
[1] = biological target: Cagβ-AAD1 E350A (Helicobacter pylori 26695); assay: ITC; ITC-200 at 25 °C; 20 mM Tris pH 8.0, 150 mM NaCl; Cagβ proteins (20 µM) in the cell, CagZ proteins or peptides (200 µM) in the syringe
[2] = biological target: Cagβ-AAD1 N365A (Helicobacter pylori 26695); assay: as above
[3] = biological target: Cagβ-AAD1 (all-alpha domain of Cagβ, residues 289–488) (Helicobacter pylori 26695) (UniProt O25260); assay: as above
[4] = biological target: Cagβ-AAD1 S453A (Helicobacter pylori 26695); assay: as above
[5] = biological target: Cagβ-AAD1 E314A (Helicobacter pylori 26695); assay: as above
[6] = biological target: Cagβ-AAD1 F358A (Helicobacter pylori 26695); assay: as above
[7] = biological target: Cagβ-AAD1 N452A (Helicobacter pylori 26695); assay: as above
[8] = biological target: Cagβ-AAD1 K388A (Helicobacter pylori 26695); assay: as above
[9] = biological target: Cagβ-AAD1 E396A (Helicobacter pylori 26695); assay: as above
[10] = biological target: Cagβ-AAD1 R375A (Helicobacter pylori 26695); assay: as above
[11] = biological target: Cagβ-AAD1 N449A (Helicobacter pylori 26695); assay: as above
[12] = biological target: Cagβ-AAD1 D309A (Helicobacter pylori 26695); assay: as above
[13] = biological target: Cagβ-AAD1 Y374F (Helicobacter pylori 26695); assay: as above
[14] = biological target: Cagβ1 (soluble region of Cagβ, residues 166–748) (Helicobacter pylori 26695) (UniProt O25260); assay: mass photometry; Cagβ1/CagZ complex (co-expressed, co-purified) at 0.06 µM; OneMP instrument (Refeyn)
[15] = biological target: Cagβ-AAD1 T338A (Helicobacter pylori 26695); assay: ITC; ITC-200 at 25 °C; 20 mM Tris pH 8.0, 150 mM NaCl; Cagβ proteins (20 µM) in the cell, CagZ proteins or peptides (200 µM) in the syringe
[16] = biological target: Cagβ-AAD1 D335A (Helicobacter pylori 26695); assay: as above
[17] = biological target: Cagβ-AAD1 N361A (Helicobacter pylori 26695); assay: as above
[18] = biological target: Cagβ-AAD1 D356A (Helicobacter pylori 26695); assay: as above
[19] = biological target: Cagβ-AAD1 E462A (Helicobacter pylori 26695); assay: as above
[20] = biological target: T1, Cagβ-AAD1 (all-alpha domain of Cagβ, residues 289–488) (Helicobacter pylori 26695, UniProt O25260 289-488); assay: as above; conditions: both partners purified
T1 construct: Cagβ (HP0524, Cag5) of H. pylori 26695, residues 289-488, holding the all-alpha domain (AAD); source: E. coli BL21 star (DE3), purified (Ni-NTA, TEV cleavage, second Ni-NTA, SEC); not shown: His6, N-terminal, cleaved; TrxA, N-terminal, cleaved
T1 sequence: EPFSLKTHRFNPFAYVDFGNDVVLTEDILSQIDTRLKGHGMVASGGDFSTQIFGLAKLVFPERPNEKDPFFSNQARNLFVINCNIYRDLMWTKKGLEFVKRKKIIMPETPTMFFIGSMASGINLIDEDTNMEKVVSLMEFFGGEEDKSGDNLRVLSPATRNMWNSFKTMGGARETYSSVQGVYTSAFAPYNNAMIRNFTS

[21] = biological target: T2, Cagβ-AAD1 (residues 289-488), wild type (Helicobacter pylori 26695, UniProt O25260 289-488); assay: ITC; ITC-200, 25 °C, 20 mM Tris pH 8.0, 150 mM NaCl; Cagβ proteins (20 µM) in the cell, CagZ proteins (200 µM) in the syringe; conditions: both partners purified
T2 construct: Cagβ (HP0524, Cag5) of Helicobacter pylori 26695, residues 289-488, holds the all-alpha domain (AAD); also called Cagβ-AAD1_WT; Cagβ-AAD1 (289-488); source: E. coli BL21 star (DE3), purified (Ni-NTA, TEV, second Ni-NTA, SEC); not shown: His6, N-terminal, cleaved; TrxA, N-terminal, cleaved
T2 sequence: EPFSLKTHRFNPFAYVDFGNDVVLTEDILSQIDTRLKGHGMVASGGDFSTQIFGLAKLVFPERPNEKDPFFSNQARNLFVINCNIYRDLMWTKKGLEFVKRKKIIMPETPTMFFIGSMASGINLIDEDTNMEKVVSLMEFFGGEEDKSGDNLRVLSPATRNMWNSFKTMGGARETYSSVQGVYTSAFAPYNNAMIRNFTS

[22] = biological target: T3, CagZ (residues 2-199), wild type (Helicobacter pylori 26695, UniProt B5Z6P9 2-199); assay: as above; conditions: both partners purified
T3 construct: CagZ of Helicobacter pylori 26695, residues 2-199; also called CagZ-WT; source: E. coli BL21 star (DE3), purified (Ni-NTA, TEV, second Ni-NTA, SEC); not shown: His6, N-terminal, cleaved; TrxA, N-terminal, cleaved
T3 sequence: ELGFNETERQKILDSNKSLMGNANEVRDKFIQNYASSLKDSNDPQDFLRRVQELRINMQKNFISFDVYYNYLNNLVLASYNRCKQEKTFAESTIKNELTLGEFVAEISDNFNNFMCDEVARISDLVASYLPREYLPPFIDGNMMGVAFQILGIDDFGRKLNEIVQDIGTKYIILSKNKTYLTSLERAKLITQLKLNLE

CagZ R159A (natural protein)
Kd [1]: 40 nM

CagZ N162A (natural protein)
Kd [2]: 40 nM

CagZ E199A (natural protein)
Kd [3]: 40 nM

CagZ S124A (natural protein)
Kd [4]: 20 nM

CagZ K85A (natural protein)
Kd [5]: 80 nM

CagZ F149A (natural protein)
Kd [6]: 410 nM

CagZ D125A (natural protein)
Kd [7]: 60 nM

CagZ N178A/Y181A (natural protein)
Kd [3]: 1500 nM

CagZ (residues 2–199), expressed separately from pET-32a (from UniProt O25261 2-199) (natural protein)
Kd [8]: 40 nM
Kd [9]: 40 nM
Kd [10]: 1460 nM
Kd [11]: 20 nM
Kd [12]: 70 nM
Kd [13]: 20 nM

CagZ co-expressed with Cagβ1 from pET-28a (natural protein)
percent of the protein in the 1:1 complex [14]: 88%
stoichiometry N [14]: 1

CagZ R187A (natural protein)
Kd [3]: 16900 nM

CagZ T170A (natural protein)
Kd [15]: 90 nM
Kd [16]: 90 nM

CagZ S184A (natural protein)
Kd [3]: 70 nM

CagZ Y81F (natural protein)
Kd [5]: 90 nM

CagZ N178A (natural protein)
Kd [3]: 150 nM
Kd [10]: 8770 nM

CagZ D155A (natural protein)
Kd [17]: 60 nM

CagZ Q150A (natural protein)
Kd [18]: 50 nM

CagZ R133A (natural protein)
Kd [19]: 20 nM

CagZ Y181A (natural protein)
Kd [3]: 560 nM
Kd [10]: 35700 nM

B1: CagZ-24 (peptide of the CagZ C-terminal tail, residues 176–199) (peptide)
peptide: SKNKTYLTSLERAKLITQLKLNLE
notes: CagZ of H. pylori, C-terminal tail, residues 176-199; source: synthetic peptide (Genscript)
Kd [20]: 330 nM

B2: CagZ (residues 2-199) E199A (natural protein)
chain: ELGFNETERQKILDSNKSLMGNANEVRDKFIQNYASSLKDSNDPQDFLRRVQELRINMQKNFISFDVYYNYLNNLVLASYNRCKQEKTFAESTIKNELTLGEFVAEISDNFNNFMCDEVARISDLVASYLPREYLPPFIDGNMMGVAFQILGIDDFGRKLNEIVQDIGTKYIILSKNKTYLTSLERAKLITQLKLNLA
notes: CagZ of Helicobacter pylori 26695, residues 2-199, with E199A; source: E. coli BL21 star (DE3), purified as the wild type but without TEV protease treatment; not shown: His6, N-terminal, kept; TrxA, N-terminal, kept
Kd [21]: ~50 nM

B3: CagZ (residues 2–199), expressed separately from pET-32a (natural protein)
chain: ELGFNEAERQKILDSNSSLMGNANEVRDKFIQNYASSLKDSNDPQDFLRRVQELRINMQKNFISFDVYYNYLNNLVLASYNRCKQEKTFAESTIKNELTLGEFVAEISDNFNNFMCDEVARISDLVASYLPREYLPPFIDGNMMGVAFQILGIDDFGRKLNEIVQDIGTKYIILSKNKTYLTSLERAKLITQLKLNLE
notes: CagZ of H. pylori 26695, residues 2-199; also called WT; full-length CagZ; source: E. coli BL21 star (DE3), purified (Ni-NTA, TEV cleavage, second Ni-NTA, SEC); not shown: His6, N-terminal, cleaved; TrxA, N-terminal, cleaved
Kd [20]: 90 nM

B4: CagZ-20 (peptide of the CagZ C-terminal tail, residues 176–195) (peptide)
peptide: SKNKTYLTSLERAKLITQLK
notes: CagZ of H. pylori, C-terminal tail, residues 176-195; source: synthetic peptide (Genscript)
Kd [20]: 42000 nM

B5: Cagβ-AAD3 (residues 299-488) (domain or fragment)
chain: NPFAYVDFGNDVVLTEDILSQIDTRLKGHGMVASGGDFSTQIFGLAKLVFPERPNEKDPFFSNQARNLFVINCNIYRDLMWTKKGLEFVKRKKIIMPETPTMFFIGSMASGINLIDEDTNMEKVVSLMEFFGGEEDKSGDNLRVLSPATRNMWNSFKTMGGARETYSSVQGVYTSAFAPYNNAMIRNFTS
notes: Cagβ (HP0524, Cag5) of Helicobacter pylori 26695, residues 299-488, holds the all-alpha domain (AAD); also called Cagβ-AAD3 (299-488); source: E. coli BL21 star (DE3), purified (Ni-NTA, TEV, second Ni-NTA, SEC); not shown: His6, N-terminal, cleaved; TrxA, N-terminal, cleaved
Kd [22]: 190 nM
